Measurements published in US20210032347A1 (JIANGSU HANSOH PHARMACEUTICAL GROUP, published 2021).
Numbering of substitutions follows the chain as printed. Each block holds one binder with its values, some of them ahead of it.

Biological target: T1, Human B7-H4 with HisFlag tag (huB7-H4-his) (human, UniProt Q7Z7D3 25-258)
T1 construct: also called HuB7-H4 His protein; huB7-H4-HF
T1 sequence: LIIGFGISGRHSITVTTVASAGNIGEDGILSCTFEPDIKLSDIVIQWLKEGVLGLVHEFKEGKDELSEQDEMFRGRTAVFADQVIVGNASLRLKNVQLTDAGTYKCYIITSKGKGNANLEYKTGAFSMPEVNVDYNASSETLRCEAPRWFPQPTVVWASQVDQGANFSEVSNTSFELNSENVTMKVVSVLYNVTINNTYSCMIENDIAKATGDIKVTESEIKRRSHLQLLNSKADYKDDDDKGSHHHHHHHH
Assay: SPR Biacore T200, antibody coupled to CM5 chip, 50 nM huB7-H4-his in flow, 1:1 model
Description: a). 50 nM human huB7-H4-his protein (Sino Biological #10738-H08H) diluted by the same buffer was loaded at a flow rate of 10 μL/min, and the chip was regenerated with the regeneration reagent provided in the kit. Antigen-antibody binding kinetics were recorded for 3 minutes and dissociation kinetics were recorded for 10 minutes. The resulting data were analyzed by GE's BIAevaluation Software using 1:1 (Langmuir) binding model.

B3: murine mAb 2A10 (antibody, V domains shown)
VH: EVQLVESGGGFVKPGGSLKLSCAASGFTFSTFGMSWVRQTPDKRLEWVAGISPGGSYTYYPDTVKGRFTISRDNARNTLYLQMSSLRSEDSAMYYCTRGRSVWGTGTTVTVSS
VL: DILMTQSPSSMSVSLGDTVSITCHASQDISSNIGWLQQKPGKSFKGLIYHGTTLEDGIPSRFSGSGSGADYSLTISSLESEDFADYYCVQSAQFPWTFGGGTKLEIK
notes: Murine antibody from hybridoma
koff: 0.000331 s⁻¹

B6: murine mAb 1E4 (antibody, V domains shown)
VH: EVQLVESGGGLVKPGGSLKLSCAASGFTFSRYAMSWVRQTPEKRLEWVAGISSGGSYTYYPDTLKGRFTVSRDNARNTLYLQMSSLRSEDTAKYFCASQGSNHYFDYWGQGTTLTVSS
VL: B3 VL with I2T, D28G, S30H, S31N, G46A, T53N, I58V, T74I, S91Y, W96Y
notes: as for B3
koff: 0.000293 s⁻¹

B7: M1 (listed as murine antibody) (antibody, V domains shown)
VH: EIQLQQSGPELVMPGASVKVSCTASGYPFTTYNMYWVKQSHGKSLEWIAYIDPYNGGTSYNQKFKGKATLTVDKSSSTAYMHLNSLTSEDSAVYYCARSGFYDGYYAWYFDVWGAGTTVTVSS
VL: DVVMTQTPLSLPVSLGDQASISCRSSQSLVHSGGNTYLHWYLQKPGQSPKLLIYKVSNRFSGVPDRFSGSGSGTDFTLKISRVEAEDLGVYFCSQSTHVPLTFGAGTKLELK
koff: 3.98e-05 s⁻¹

Next, values leading:

koff: 6.87e-05 s⁻¹
B1: murine mAb 2F8 (antibody, V domains shown)
VH: QVQLQQPGSVLVRPGASVKLSCKASGYTFTNSWMNWAKLRPGQGLEWIGGIYPNSGNIEYNEKFKGKATLTVDTSSSTAYMDLTSLTSEDSAVYYCARDSRFSYWGQGTLVTVSA
VL: DIVMTQSHKFMSTSVGDRVSITCKASQDVRTAVAWYQQKPGQSPKLLISSTSYRYTGVPDRFTGSGSGTDFTFIISSVQAEDLAVYYCQQHYSTPLTFGAGTKLELK
notes: as for B3

koff: 5.97e-05 s⁻¹
B2: murine mAb 2E4 (antibody, V domains shown)
VH: QVQLQQPGSVLVRPGTSVKLSCKASGYTFTSSWMNWVKQRPGQGLEWIGGIYPNRGTTEYNEKFKGKATLTVDTSSSTAFMDLNRLTSEDSAVYYCARDSRFADWGQGTLVTVSA
VL: B1 VL with V3M, M4L, R30S, T31A, T51A, I74T, S93N
notes: as for B3

koff: 8.91e-05 s⁻¹
B4: murine mAb 2G6 (antibody, V domains shown)
VH: EVQLVESGGGLVKPGGSLKLSCAASGFTFSRYGMSWVRQTPEKRLEWVAGINGGGSYTYYLDTVKGRFTISRDNSRNTLYLQMSSLRSEDTAMYYCVSQGSNYYFDYWGQGTTLTVSS
VL: B3 VL with L3R, D28G, G46A, T53N, I58V, S91Y, W96Y
notes: as for B3

koff: 0.00166 s⁻¹
B5: murine mAb 2F4 (antibody, V domains shown)
VH: EVQLVESGGGLVKPGGSLKLSCAASGLTFSRYAMSWVRQTPEKRLEWVAGISSGGSYTYYSDTVKGRFTISRDNVRNTLYLQMSSLRSEDTAMYYCGREYGRDYWGQGTSVTVSS
VL: B3 VL with D28G, S30N, T53N, I58V, A69T, S91Y, W96R, K103T
notes: as for B3

koff: 0.00253 s⁻¹
B8: murine mAb 2F7 (antibody, V domains shown)
VH: EVQLVESGGGLVQPGGSLKLSCAASGFTFSNYYMSWVRQTPEKRLEWVAYVSSGGGSTYYSDSVKGRFTISRDNAKNTLYLQMSSLKPEDTAMYYCTRESYSQGNYFDYWGQGTTLTVSS
VL: DIVMTQSPATLSVTPGDRVSLSCRASQSISDYLHWYQQKSHESPRLLIKFASQSISGIPSRFSGSGSGSDFTLSINSVEPEDVGVYYCQNGHSFSLTFGAGTKLELK
notes: as for B3
